According to US6528098B2, “Preparation of a therapeutic composition” (Advanced Viral Research Corp., priority 1996, dated 2003):
No end group written: not given here.

Tests used:
Format in all cases: physicochemical
chymotrypsin = target: T1, chymotrypsin (Bos taurus, UniProt P00766); experiment: Treatment of Product R with chymotrypsin, SDS-PAGE on a 16% gel; set-up: key to Sensitivity of the Peptide Components of Product R (SDS-PAGE): Chymotrypsin (250 μg/ml): “−” represents no substantial alteration of the stainable bands; “+” represents substantial alteration of the stainable bands; conditions: 250 μg/ml chymotrypsin, 25° C., 19 hours
T1 construct: purchased Boehringer Mannheim, USA
Method: (§1) The biochemical properties of the peptides: Some biochemical properties of the silverstainable peptide components of Product R are analyzed using various catabolic enzymes, as described below:
The treatment with chymotrypsin (Boehringer Mannheim, USA):Chymotrypsin is a serine protease that specifically hydrolyses the peptide bonds of tyrosine, phenylalanine and tryptophan at C-terminals. It also cleaves peptide bonds of leucine, methionine, alanine, aspartic acid and glutamic acid at C-terminals at relatively lower rates. A Product R sample is incubated in a reaction buffer containing 100 mM Tris-HCl, pH 7.6, 10 mM CaCl2 and 250 μg/ml of sequencing grade chymotrypsin at 25° C. for 19 hours and then subject to SDS-PAGE on a 16% gel.
(§2) A summary of the above described treatments by catabolic enzymes is provided in the following TABLE III, and the results of the treatment are shown in FIG. 5, wherein “−” represents no substantial alteration of the stainable bands and “+” represents substantial alteration of the stainable bands.

[1] = target: T2, recombinant N-glycosidase F (Elizabethkingia miricola, UniProt P21163); experiment: Treatment of Product R with N-glycosidase F, SDS-PAGE on a 16% gel; set-up: key: “−” represents no substantial alteration of the stainable bands; “+” represents substantial alteration of the stainable bands; conditions: 37° C., 4 hours
T2 construct: purchased Boehringer Mannheim, USA
T2 sequence (P21163 41-354): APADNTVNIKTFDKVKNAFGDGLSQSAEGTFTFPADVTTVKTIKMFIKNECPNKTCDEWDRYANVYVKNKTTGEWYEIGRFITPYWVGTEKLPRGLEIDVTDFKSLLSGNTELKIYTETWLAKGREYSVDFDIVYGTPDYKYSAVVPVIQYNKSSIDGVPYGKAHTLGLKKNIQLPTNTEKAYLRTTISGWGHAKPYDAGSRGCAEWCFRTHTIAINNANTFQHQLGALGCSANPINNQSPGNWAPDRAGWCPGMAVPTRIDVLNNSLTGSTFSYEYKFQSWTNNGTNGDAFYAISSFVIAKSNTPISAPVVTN
Method: as §1
The treatment with N-glycosidase F (Boehringer Mannheim, USA): N-glycosidase F cleaves all types of asparagine bound N-glycans provided that the amino group and the carboxyl group are present in a peptide linkage and the oligosaccharide has the minimum length of the chitobiose core unit. A Product R sample is incubated in a reaction buffer containing 0.4X Dulbecco's PBS (where 1X PBS contains 1.47 mM KH2 PO4, 2.67 mM KCl, 138 mM NaCl and 8.1 mM Na2 PO4 7H2O), 0.1% SDS, 0.5% NP40 and 50 units/mil of recombinant N-glycosidase F at 37° C. for 4 hours and subject to SDS-PAGE on a 16% gel. […] The resistance to N-glycosidase F indicates the lack of asparagine bound N-glycan, which is commonly observed in glycoproteins.
as §2

[2] = tested on: Calf thymus alkaline phosphatase (CIAP); experiment: Treatment of Product R with alkaline phosphatase, SDS-PAGE on a 16% gel; set-up: key to Sensitivity of the Peptide Components of Product R (SDS-PAGE): Alkaline Phosphatase (200 units/ml): “−” represents no substantial alteration of the stainable bands; “+” represents substantial alteration of the stainable bands; conditions: 200 units/ml CIAP, 37° C., about one hour
Method: as §1
The treatment with alkaline phosphatase (Life Technologies, USA): Calf thymus alkaline phosphatase (CIAP) is a phosphomonoesterase that hydrolyses 5′-phosphate groups from DNA, RNA and nucleotides. A Product R sample is incubated in a reaction buffer provided by the manufacturer of the enzyme and 200 units/ml CIAP at 37° C. for about one hour and subjected to SDS-PAGE on a 16% gel.
as §2

Sequence	Sensitivity of the Peptide Components of Product R (SDS-PAGE): Chymotrypsin (250 μg/ml) (chymotrypsin)	change of band intensity after chymotrypsin treatment (chymotrypsin)	Sensitivity of the Peptide Components of Product R (SDS-PAGE): N-glycosidase F (50 units/ml) [1]	Sensitivity of the Peptide Components of Product R (SDS-PAGE): Alkaline Phosphatase (200 units/ml) [2]	change of band intensity / hydrolysis by alkaline phosphatase [2]
KVLPVPQKAVPYPQRDMPIQAFLLYQEPVLG [Peptide-A, 31-amino-acid long peptide derived from bovine beta-casein, constituent of Product R]	+	significantly reduces the intensity	−	−	
GEIPDAGGRIVDYYVGFSDSV (not fully specified (residue 18)) [Peptide-B, 21-amino acid peptide linked at serine 18 through a diphosphodiester group to the 3′-end of an adenylyl (3′-5′) adenosine moiety]	−	no apparent effect	−	−	resistance
